Experimental data from patent US20250382363A1 (NUMAB THERAPEUTICS, published 2025).
Changes are numbered by the printed parent chain. Names and notes keep the numbering of the source.

B1: PRO2943 (scFv 54-21-H03-sc01_(T146E)) (scFv)
scFv: DIQMTQSPSSLSASVGDRVTITCQASESIYSSLAWYQQKPGKAPKLLIYLASTLASGVPSRFSGSGSGTDFTLTISSLQPEDFATYYCQSTDYTTSTHRNSFGTGTKVTVLGGGGGSGGGGSGGGGSGGGGSEVQLVESGGGLVQPGGSLRLSCAASGFSFSTTYYMCWVRQAPGKGLEWIGCTNTASSVRTYYATWAKGRFTISRDNSKNTVYLQMNSLRAEDTAVYYCARDMGFADYALNLWGQGTLVEVSS
notes: PRO1922 variant; VH substitution, AHo numbering; also called PRO1922 T146E
B2: PRO3323 (scFv 54-21-H03-sc01_(L12A, T101Q, L144A, T146Q)) (scFv)
scFv: B1 scFv with L143A, T225Q, L249A, E251Q
notes: PRO1922 variant; VH substitutions, AHo numbering; also called PRO1922 L12A-T101Q-L144A-T146Q
B3: PRO3320 (scFv 54-21-H03-sc01_(L12A, T101S, L144K, T146Q)) (scFv)
scFv: B1 scFv with L143A, T225S, L249K, E251Q
notes: PRO1922 variant; VH substitutions, AHo numbering; also called PRO1922 L12A-T101S-L144K-T146Q
B4: PRO3326 (scFv 54-21-H03-sc01_(T101Q, T146Q)) (scFv)
scFv: B1 scFv with T225Q, E251Q
notes: PRO1922 variant; VH substitutions, AHo numbering; also called PRO1922 T101Q-T146Q
B5: PRO3348 (scFv 54-21-H03-sc01_(T101K, T146D)) (scFv)
scFv: B1 scFv with T225K, E251D
notes: PRO1922 variant; VH substitutions, AHo numbering; also called PRO1922 T101K-T146D
B6: PRO3329 (scFv 54-21-H03-sc01_(T101Q)) (scFv)
scFv: B1 scFv with T225Q, E251T
notes: PRO1922 variant; VH substitution, AHo numbering; also called PRO1922 T101Q
B7: PRO3344 (scFv 54-21-H03-sc01_(T101K, T146Q)) (scFv)
scFv: B1 scFv with T225K, E251Q
notes: PRO1922 variant; VH substitutions, AHo numbering; also called PRO1922 T101K-T146Q
B8: PRO3324 (scFv 54-21-H03-sc01_(T101R, T146Q)) (scFv)
scFv: B1 scFv with T225R, E251Q
notes: PRO1922 variant; VH substitutions, AHo numbering; also called PRO1922 T101R-T146Q
B9: PRO3325 (scFv 54-21-H03-sc01_(T101S, T146R)) (scFv)
scFv: B1 scFv with T225S, E251R
notes: PRO1922 variant; VH substitutions, AHo numbering; also called PRO1922 T101S-T146R
B10: PRO2993 (scFv 54-21-H03-sc01_(P15A)) (scFv)
scFv: B1 scFv with P146A, E251T
notes: PRO1922 variant; VH substitution, AHo numbering; also called PRO1922 P15A
B11: PRO2991 (scFv 54-21-H03-sc01_(T101A)) (scFv)
scFv: B1 scFv with T225A, E251T
notes: PRO1922 variant; VH substitution, AHo numbering; also called PRO1922 T101A
B12: PRO2990 (scFv 54-21-H03-sc01_(L12S, V103T, L144T)) (scFv)
scFv: B1 scFv with L143S, V227T, L249T, E251T
notes: VH substitutions, AHo numbering; also called PRO1922-L12S-V103T-L144T
B13: PRO2994 (scFv 54-21-H03-sc01_(P48A)) (scFv)
scFv: B1 scFv with P174A, E251T
notes: PRO1922 variant; VH substitution, AHo numbering; also called PRO1922 P48A
B14: PRO2992 (scFv 54-21-H03-sc01_(T146A)) (scFv)
scFv: B1 scFv with E251A
notes: PRO1922 variant; VH substitution, AHo numbering; also called PRO1922 T146A
B15: PRO2945 (scFv 54-21-H03-sc01_(T101R)) (scFv)
scFv: B1 scFv with T225R, E251T
notes: PRO1922 variant; VH substitution, AHo numbering; also called PRO1922 T101R
B16: PRO3322 (scFv 54-21-H03-sc01_(L12R, T101R, L144A, T146Q)) (scFv)
scFv: B1 scFv with L143R, T225R, L249A, E251Q
notes: PRO1922 variant; VH substitutions, AHo numbering; also called PRO1922 L12R-T101R-L144A-T146Q
B17: PRO3319 (scFv 54-21-H03-sc01_(L12A, T101S, L144A, T146R)) (scFv)
scFv: B1 scFv with L143A, T225S, L249A, E251R
notes: PRO1922 variant; VH substitutions, AHo numbering; also called PRO1922 L12A-T101S-L144A-T146R
B18: PRO2946 (scFv 54-21-H03-sc01_(T101S)) (scFv)
scFv: B1 scFv with T225S, E251T
notes: PRO1922 variant; VH substitution, AHo numbering; also called PRO1922 T101S
B19: PRO3321 (scFv 54-21-H03-sc01_(L12R, T101S, L144A, T146Q)) (scFv)
scFv: B1 scFv with L143R, T225S, L249A, E251Q
notes: PRO1922 variant; VH substitutions, AHo numbering; also called PRO1922 L12R-T101S-L144A-T146Q
B20: PRO3347 (scFv 54-21-H03-sc01_(T101S, T146S)) (scFv)
scFv: B1 scFv with T225S, E251S
notes: PRO1922 variant; VH substitutions, AHo numbering; also called PRO1922 T101S-T146S
B21: PRO3346 (scFv 54-21-H03-sc01_(T101S T146K)) (scFv)
scFv: B1 scFv with T225S, E251K
notes: PRO1922 variant; VH substitutions, AHo numbering; also called PRO1922 T101S-T146K
B22: PRO2944 (scFv 54-21-H03-sc01_(T146Q)) (scFv)
scFv: B1 scFv with E251Q
notes: PRO1922 variant; VH substitution, AHo numbering; also called PRO1922 T146Q
B23: PRO3318 (scFv 54-21-H03-sc01_(L12A, T101R, L144A, T146Q)) (scFv)
scFv: B1 scFv with L143A, T225R, L249A, E251Q
notes: PRO1922 variant; VH substitutions, AHo numbering; also called PRO1922 L12A-T101R-L144A-T146Q
B24: PRO3349 (scFv 54-21-H03-sc01_(T101R, T146E)) (scFv)
scFv: B1 scFv with T225R
notes: PRO1922 variant; VH substitutions, AHo numbering; also called PRO1922 T101R-T146E
B25: PRO3345 (scFv 54-21-H03-sc01_(T101N, T146Q)) (scFv)
scFv: B1 scFv with T225N, E251Q
notes: PRO1922 variant; VH substitutions, AHo numbering; also called PRO1922 T101N-T146Q

What follows are binders tested against T1, human a-Mesothelin (Acro Biosystems; MSN_H5223) (human, UniProt Q13421 296-580, limits assumed) (assay: SPR, mesothelin immobilised, scFv analyte, 1:1 fit).
T1 construct: Bought protein immobilised on the SPR chip; Printed as 'a-Mesothelin' but used as the antigen for the anti-MSLN scFvs; also called Human MSLN; MSLN
Description: The mutation variants were then injected at concentrations of 10 nM, 2 nM and 0.4 nM over the ligand-immobilized and reference spots. The wild type variants were used as a control, while an empty spot was used as reference.
After each cycle with analyte, the surface was regenerated with a 3M MgCl₂ solution, thereby allowing the next analyte cycle to have only free ligand available. Binding affinity KD was globally calculated by the Bruker SPR software based on the binding association (kₒₙ) and dissociation (Koff) rate, by fitting a 1:1 Langmuir model to the curves obtained by the cycles with the three different concentrations of the analyte.

T1 sequence (Q13421 other isoform, or with tags, fused parts or gaps limits assumed): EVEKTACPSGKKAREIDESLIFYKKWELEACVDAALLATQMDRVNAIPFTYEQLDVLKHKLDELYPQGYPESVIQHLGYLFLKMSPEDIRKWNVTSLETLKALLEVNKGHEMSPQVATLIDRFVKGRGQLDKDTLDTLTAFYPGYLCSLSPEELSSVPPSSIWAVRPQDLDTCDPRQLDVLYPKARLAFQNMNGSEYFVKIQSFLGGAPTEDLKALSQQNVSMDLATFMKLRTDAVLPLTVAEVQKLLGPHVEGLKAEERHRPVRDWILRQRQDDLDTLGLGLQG

| Binder | Kd | n-fold to wt |
| --- | --- | --- |
| B1 | 3.3 nM | 1.8 fold |
| B2 | 1.7 nM | 0.9 fold |
| B3 | 1.6 nM | 0.9 fold |
| B4 | 1.8 nM | 1 fold |
| B5 | 2.5 nM | 1.4 fold |
| B6 | 1.6 nM | 0.9 fold |
| B7 | 1.6 nM | 0.9 fold |
| B8 | 1.9 nM | 1.1 fold |
| B9 | 1.8 nM | 1 fold |
| B10 | 0.82 nM | 0.5 fold |
| B11 | 2.9 nM | 1.6 fold |
| B12 | 1.5 nM | 0.8 fold |
| B13 | 1.5 nM | 0.8 fold |
| B14 | 1.7 nM | 0.9 fold |
| B15 | 3 nM | 1.7 fold |
| B16 | 2.1 nM | 1.2 fold |
| B17 | 2.5 nM | 1.4 fold |
| B18 | 3.2 nM | 1.8 fold |
| B19 | 1.7 nM | 0.9 fold |
| B20 | 1.7 nM | 0.9 fold |
| B21 | 1.5 nM | 0.8 fold |
| B22 | 1.8 nM | 1 fold |
| B23 | 2.3 nM | 1.3 fold |
| B24 | 1.9 nM | 1.1 fold |
| B25 | 1.5 nM | 0.8 fold |

The binders below were run against pre-existing anti-drug antibodies (ADA) present in human sera (assay: pre-existing ADA ELISA, scFv coated, human sera unspiked vs spiked).

| Binder | Mean No of serum samples >30% inhibition (30% CCP) with SCP (serum samples) | No of serum samples >30% inhibition (30% CCP) without SCP (serum samples) |
| --- | --- | --- |
| B1 | 2 | 4 |
| B2 | 0 | 0 |
| B3 | 0 | 0 |
| B4 | 0 | 0 |
| B5 | 0 | 0 |
| B6 | 1 | 2 |
| B7 | 0 | 0 |
| B8 | 1 | 2 |
| B9 | 1 | 4 |
| B10 | 2 | 3 |
| B11 | 0 | 0 |
| B12 | 4 | 5 |
| B13 | 2 | 6 |
| B14 | 3 | 4 |
| B15 | 0 | 0 |
| B16 | 0 | 0 |
| B17 | 0 | 0 |
| B18 | 6 | 9 |
| B19 | 0 | 0 |
| B20 | 3 | 3 |
| B21 | 0 | 0 |
| B22 | 3 | 3 |
| B23 | 0 | 0 |
| B24 | 0 | 0 |
| B25 | 0 | 0 |
